Reference: the supplement of paper PMC11246515
± gives the standard deviation of the averaged measurements.

Experiment: total protein half-life in vivo (active degradation + dilution); higher = more stable protein
[1] = E. coli NCM3722 delta-clpP delta-lon delta-hslV, growth: N-lim chemostat, doubling time 6 h
[2] = E. coli NCM3722 delta-hslV, growth: N-lim chemostat, doubling time 6 h
[3] = E. coli NCM3722 delta-lon, growth: N-lim chemostat, doubling time 6 h
[4] = E. coli NCM3722 delta-smpB, growth: N-lim chemostat, doubling time 6 h
[5] = wild type E. coli NCM3722, growth: C-lim chemostat, doubling time 3 h
[6] = wild type E. coli NCM3722, growth: C-lim chemostat, doubling time 6 h
[7] = wild type E. coli NCM3722, growth: C-lim chemostat, doubling time 12 h
[8] = wild type E. coli NCM3722, growth: N-lim chemostat, doubling time 6 h
[9] = wild type E. coli NCM3722, growth: N-lim chemostat, doubling time 12 h
[10] = wild type E. coli NCM3722, growth: P-lim chemostat, doubling time 6 h
[11] = wild type E. coli NCM3722, growth: P-lim chemostat, doubling time 12 h
[12] = E. coli NCM3722 delta-clpP, growth: N-lim chemostat, doubling time 6 h

Row | Sequence | total protein half-life in vivo [1] | total protein half-life in vivo [2] | total protein half-life in vivo [3] | total protein half-life in vivo [4] | total protein half-life in vivo [5] | total protein half-life in vivo [6] | total protein half-life in vivo [7] | total protein half-life in vivo [8] | total protein half-life in vivo [9] | total protein half-life in vivo [10] | total protein half-life in vivo [11] | total protein half-life in vivo [12]
1 | MIEWQDLHHSELSVSQLYALLQLRCAVFVVEQNCPYQDIDGDDLTGDNRHILGWKNDELVAYARILKSDDDLEPVVIGRVIVSEALRGEKVGQQLMSKTLETCTHHWPDKPVYLGAQAHLQNFYQSFGFIPVTEVYEEDGIPHIGMAREVIQA [P0AEH3] | 4.51 ± 0.43 h | 3.93 ± 1.4 h | 3.58 ± 0.13 h | 2.23 ± 0.14 h | 2.35 ± 0.064 h | 4.3 ± 0.27 h | 7.04 ± 0.82 h | 2.68 ± 0.086 h | 3.85 ± 0.064 h | 4.54 ± 0.38 h | 9.98 ± 1.5 h | 
2 | MIFLMTKDSFLLQGFWQLKDNHEMIKINSLSEIKKVGNKPFKVIIDTYHNHILDEEAIKFLEKLDAERIIVLAPYHISKLKAKAPIYFVSRKESIKNLLEITYGKHLPHKNSQLCFSHNQFKIMQLILKNKNESNITSTLNISQQTLKIQKFNIMYKLKLRRMSDIVTLGITSYF | 4.62 ± 0.1 h | 1.91 ± 0.33 h | 1.03 ± 0.022 h | 3.52 ± 0.093 h |  |  |  | 2.29 ± 0.07 h | 3.82 ± 0.15 h | 2.34 ± 0.054 h | 6.16 ± 0.74 h | 3.05 ± 0.11 h
3 | MIFTLRPYQQEAVDATLNHFRRHKTPAVIVLPTGAGKSLVIAELARLARGRVLVLAHVKELVAQNHAKYQALGLEADIFAAGLKRKESHGKVVFGSVQSVARNLDAFQGEFSLLIVDECHRIGDDEESQYQQILTHLTKVNPHLRLLGLTATPFRLGKGWIYQFHYHGMVRGDEKALFRDCIYELPLRYMIKHGYLTPPERLDMPVVQYDFSRLQAQSNGLFSEADLNRELKKQQRITPHIISQIMEFAATRKGVMIFAATVEHAKEIVGLLPAEDAALITGDTPGAERDVLIENFKAQRFRYLVNVAVLTTGFDAPHVDLIAILRPTESVSLYQQIVGRGLRLAPGKTDCLILDYAGNPHDLYAPEVGTPKGKSDNVPVQVFCPACGFANTFWGKTTADGTLIEHFGRRCQGWFEDDDGHREQCDFRFRFKNCPQCNAENDIAARRCRECDTVLVDPDDMLKAALRLKDALVLRCSGMSLQHGHDEKGEWLKITYYDEDGADVSERFRLQTPAQRTAFEQLFIRPHTRTPGIPLRWITAADILAQQALLRHPDFVVARMKGQYWQVREKVFDYEGRFRLAHELRG | 5.4 ± 0.095 h | 3.55 ± 0.12 h | 3.9 ± 0.26 h | 3.3 ± 0.36 h | 2.79 ± 0.44 h | 4.38 ± 0.35 h | 7.46 ± 0.87 h | 3.38 ± 0.3 h | 5.32 ± 0.49 h | 5.37 ± 0.26 h | 10.1 ± 0.45 h | 4.39 ± 0.49 h
4 | MIGRISRFMTRFVSRWLPDPLIFAMLLTLLTFVIALWLTPQTPISMVKMWGDGFWNLLAFGMQMALIIVTGHALASSAPVKSLLRTAASAAKTPVQGVMLVTFFGSVACVINWGFGLVVGAMFAREVARRVPGSDYPLLIACAYIGFLTWGGGFSGSMPLLAATPGNPVEHIAGLIPVGDTLFSGFNIFITVALIVVMPFITRMMMPKPSDVVSIDPKLLMEEADFQKQLPKDAPPSERLEESRILTLIIGALGIAYLAMYFSEHGFNITINTVNLMFMIAGLLLHKTPMAYMRAISAAARSTAGILVQFPFYAGIQLMMEHSGLGGLITEFFINVANKDTFPVMTFFSSALINFAVPSGGGHWVIQGPFVIPAAQALGADLGKSVMAIAYGEQWMNMAQPFWALPALAIAGLGVRDIMGYCITALLFSGVIFVIGLTLF |  |  | 5.21 h | 5.88 h |  |  |  | 5.5 h | 15.3 h |  |  | 5.89 h
5 | MIIIRYLVRETLKSQLAILFILLLIFFCQKLVRILGAAVDGDIPANLVLSLLGLGVPEMAQLILPLSLFLGLLMTLGKLYTESEITVMHACGLSKAVLVKAAMILAVFTAIVAAVNVMWAGPWSSRHQDEVLAEAKANPGMAALAQGQFQQATNGSSVLFIESVDGSDFKDVFLAQIRPKGNARPSVVVADSGHLTQLRDGSQVVTLNQGTRFEGTALLRDFRITDFQDYQAIIGHQAVALDPNDTDQMDMRTLWNTDTDRARAELNWRITLVFTVFMMALMVVPLSVVNPRQGRVLSMLPAMLLYLLFFLIQTSLKSNGGKGKLDPTLWMWTVNLIYLALAIVLNLWDTVPVRRLRASFSRKGAV [P0AF98] | 6.78 ± 0.092 h |  | 6.05 ± 0.35 h | 6.02 ± 0.49 h | 3.17 ± 0.17 h | 5.94 ± 0.35 h | 10.4 h | 5.9587 ± 0.0048 h | 12.6 ± 0.32 h | 6.85 ± 0.98 h | 12.6 ± 0.65 h | 
6 | MIKFSATLLATLIAASVNAATVDLRIMETTDLHSNMMDFDYYKDTATEKFGLVRTASLINDARNEVKNSVLVDNGDLIQGSPLADYMSAKGLKAGDIHPVYKALNTLDYTVGTLGNHEFNYGLDYLKNALAGAKFPYVNANVIDARTKQPMFTPYLIKDTEVVDKDGKKQTLKIGYIGVVPPQIMGWDKANLSGKVTVNDITETVRKYVPEMREKGADVVVVLAHSGLSADPYKVMAENSVYYLSEIPGVNAIMFGHAHAVFPGKDFADIEGADIAKGTLNGVPAVMPGMWGDHLGVVDLQLSNDSGKWQVTQAKAEARPIYDIANKKSLAAEDSKLVETLKADHDATRQFVSKPIGKSADNMYSYLALVQDDPTVQVVNNAQKAYVEHYIQGDPDLAKLPVLSAAAPFKVGGRKNDPASYVEVEKGQLTFRNAADLYLYPNTLIVVKASGKEVKEWLECSAGQFNQIDPNSTKPQSLINWDGFRTYNFDVIDGVNYQIDVTQPARYDGECQMINANAERIKNLTFNGKPIDPNAMFLVATNNYRAYGGKFAGTGDSHIAFASPDENRSVLAAWIADESKRAGEIHPAADNNWRLAPIAGDKKLDIRFETSPSDKAAAFIKEKGQYPMNKVATDDIGFAIYQVDLSK | 6.84 ± 0.98 h | 6.23 ± 0.19 h | 7.14 ± 0.34 h | 5.91 ± 0.18 h | 3.34 ± 0.07 h | 5.93 ± 0.14 h | 12.9 ± 2.1 h | 6.327 ± 0.037 h | 12.2 ± 1.1 h | 5.23 ± 0.31 h | 11.212 ± 0.0065 h | 6.56 ± 1.5 h
